This data set deals with the molecule itself. Put plainly: crystal structure.

B1: Δ25 construct of chicken ASIC1a (domain or fragment, UniProt Q1XA76 25-463, looked up)
chain: SSTLHGISHIFSYERLSLKRVVWALCFMGSLALLALVCTNRIQYYFLYPHVTKLDEVAATRLTFPAVTFCNLNEFRFSRVTKNDLYHAGELLALLNNRYEIPDTQTADEKQLEILQDKANFRNFKPKPFNMLEFYDRAGHDIREMLLSCFFRGEQCSPEDFKVVFTRYGKCYTFNAGQDGKPRLITMKGGTGNGLEIMLDIQQDEYLPVWGETDETSFEAGIKVQIHSQDEPPLIDQLGFGVAPGFQTFVSCQEQRLIYLPPPWGDCKATTGDSEFYDTYSITACRIDCETRYLVENCNCRMVHMPGDAPYCTPEQYKECADPALDFLVEKDNEYCVCEMPCNVTRYGKELSMVKIPSKASAKYLAKKYNKSEQYIGENILVLDIFFEALNYETIEQKKAYEVAGLLGDIGGQMGLFIGASILTVLELFDYAYEVIKHR
Consider B1, for which the binding result is given as “binds”.

These data come from paper PMC5966032 (Nature, 2018).
